Laboratory results reported in paper PMC3871807, “Analysis of rice ER-resident J-proteins reveals diversity and functional differentiation of the ER-resident Hsp70 system in plants” (Journal of Experimental Botany, 2013).

T1: OsP58A-FLAG (rice (Oryza sativa), UniProt A0A0P0VG31 29-476)
T1 construct: OsP58A, rice ER-resident J-protein (P58IPK type: two TPR-like regions followed by a J-domain), encoded by Os02g0195300; full-length coding region; also called Os02g0195300; source: protoplasts from rice Oc cells, transfected by electroporation, in extract; not shown: 3x FLAG, C-terminal, kept
T1 sequence (looked up): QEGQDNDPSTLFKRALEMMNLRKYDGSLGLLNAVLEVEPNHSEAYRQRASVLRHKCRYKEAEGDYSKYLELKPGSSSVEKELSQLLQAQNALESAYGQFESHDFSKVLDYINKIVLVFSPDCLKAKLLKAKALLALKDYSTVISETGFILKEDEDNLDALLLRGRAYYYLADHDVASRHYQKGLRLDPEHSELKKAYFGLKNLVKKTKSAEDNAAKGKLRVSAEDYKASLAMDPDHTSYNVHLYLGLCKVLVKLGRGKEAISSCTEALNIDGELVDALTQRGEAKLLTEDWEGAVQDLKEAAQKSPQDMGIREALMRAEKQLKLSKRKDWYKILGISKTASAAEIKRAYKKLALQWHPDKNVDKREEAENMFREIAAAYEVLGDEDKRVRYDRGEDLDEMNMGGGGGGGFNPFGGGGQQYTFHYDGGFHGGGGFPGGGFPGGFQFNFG

T2: OsERdj3B-FLAG (rice (Oryza sativa), UniProt B9FHF3 24-347)
T2 construct: OsERdj3B, rice ER-resident J-protein of 347 amino acid residues (N-terminal J-domain, zinc finger motif, DnaJ C-terminal domain), encoded by Os05g0156500; full-length coding region; also called Os05g0156500; source: protoplasts from rice Oc cells, transfected by electroporation, in extract; not shown: 3x FLAG, C-terminal, kept
T2 sequence (looked up): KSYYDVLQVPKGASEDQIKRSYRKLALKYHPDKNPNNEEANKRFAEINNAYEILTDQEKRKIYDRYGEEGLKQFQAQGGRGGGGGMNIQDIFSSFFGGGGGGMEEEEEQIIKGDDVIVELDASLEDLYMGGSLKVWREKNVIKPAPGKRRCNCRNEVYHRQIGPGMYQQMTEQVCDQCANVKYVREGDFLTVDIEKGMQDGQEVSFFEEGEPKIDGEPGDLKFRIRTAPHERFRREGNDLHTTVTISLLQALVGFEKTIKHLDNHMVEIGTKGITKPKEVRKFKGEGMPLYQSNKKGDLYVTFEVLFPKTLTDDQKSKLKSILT

B1: OsBiP1-HA (natural protein)
chain: not shown
notes: full-length cDNA; The coding region was inserted into the Pro35S-ShΔ:2HA-6His vector; source: protoplasts from rice Oc cells, transfected by electroporation, in extract; not shown: 2x HA, C-terminal, kept; His6, C-terminal, kept
B2: OsBiP5-HA (natural protein)
chain: not shown
notes: as for B1

Tests used:
Test in all cases: co-IP; J-protein-3xFLAG and OsBiP-2HA-6His co-transfected into rice Oc cell protoplasts, overnight at 28 °C; extract in 50 mM TRIS-HCl pH 7.5, 150 mM NaCl, 0.5% Triton X-100; anti-FLAG M2 magnetic beads 2 h at 4 °C; washed with NET buffer (0.1% NP-40); blots with anti-FLAG-HRP and anti-HA-HRP; recovery of BiP-HA over input, relative to BiP1-HA
Settings in all cases: partners not purified
[1] = biological target: T1, OsP58A-FLAG
[2] = biological target: T2, OsERdj3B-FLAG
[3] = biological target: T3, OsERdj3A-FLAG (rice (Oryza sativa), UniProt Q10MW6 26-582)
T3 construct: OsERdj3A, rice ER-resident J-protein (N-terminal J-domain followed by a thioredoxin-like region), encoded by Os03g0293000; also called Os03g0293000; source: protoplasts from rice Oc cells, transfected by electroporation, in extract; not shown: 3x FLAG, C-terminal, kept
T3 sequence (Q10MW6 26-582): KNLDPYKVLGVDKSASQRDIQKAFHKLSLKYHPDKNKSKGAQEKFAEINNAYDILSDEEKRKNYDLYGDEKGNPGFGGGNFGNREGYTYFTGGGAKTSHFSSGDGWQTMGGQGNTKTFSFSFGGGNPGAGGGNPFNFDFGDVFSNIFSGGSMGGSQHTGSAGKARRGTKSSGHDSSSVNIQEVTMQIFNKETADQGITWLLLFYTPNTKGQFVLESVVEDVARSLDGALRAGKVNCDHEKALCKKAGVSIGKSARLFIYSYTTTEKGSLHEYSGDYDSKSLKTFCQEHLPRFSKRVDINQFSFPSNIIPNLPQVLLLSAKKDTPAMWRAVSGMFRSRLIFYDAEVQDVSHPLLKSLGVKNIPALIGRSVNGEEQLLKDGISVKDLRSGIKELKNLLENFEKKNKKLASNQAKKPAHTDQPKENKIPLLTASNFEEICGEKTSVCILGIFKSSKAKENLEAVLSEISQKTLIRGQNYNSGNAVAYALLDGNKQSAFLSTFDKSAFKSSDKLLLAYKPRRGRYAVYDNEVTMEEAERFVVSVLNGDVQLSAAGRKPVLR

| fold higher affinity than OsBiP3-HA (recovery in co-IP) [1] | fold higher affinity than OsBiP3-HA (recovery in co-IP) [2] | fold higher affinity than OsBiP5-HA (recovery in co-IP) [2] | fold higher level than OsBiP1-HA (recovery in co-IP) [3] | Binder |
| --- | --- | --- | --- | --- |
| 4 fold | ~2 fold | ~3 fold |  | B1 |
|  |  |  | 4 fold | B2 |
